Positions count from the first letter of the chain named.
B1: pCART239, a variant IdeZ polypeptide of the invention (protein)
chain: MDDYQRNATEAYAKEVPHQITSVWTKGVTPPEQFTQGEDVIHAPYLAHQGWYDITKAFNGKDDLLCGAATAGNMLHWWFDQNKTEIEAYLSKHPEKQKIIFRNQELFDLKAAIDTKDSQTNSQLFNYFRDKAFPNLSARQLGVMPDLVLDMFINGYYLNVFKTQSTDVNRPYQDKDKRGGIFDAVFTRGNQTTLLTARHDLKNKGLNDISTIIKQELTEGRALALSHTYANVSISHVINLWGADFNAEGNLEAIYVTDSDANASIGMKKYFVGINAHGHVAISAKKIEGENIGAQVLGLFTLSSGKDIWQKLSGGGHHHHHH
B2: pCART243, an inactive variant IdeZ polypeptide (protein)
chain: B1 chain with C66G

Experiments:
[1] = target: IgG in human serum pool from 100 individuals
[2] = target: anti-drug antibodies (ADA) in human serum

Row | Protein | enzyme concentration at which intact IgG started to be digested, serum pool with 0.1 mg/ml pCART243 (SDS-PAGE) [1] | enzyme concentration at which scIgG are further digested into F(ab')2 and Fc fragments in serum pool (SDS-PAGE) [1] | enzyme concentration for cleavage from IgG to scIgG in serum pool (SDS-PAGE) [1] | restoration of pCART239 IgG cleavage activity in serum by 0.1 mg/ml inactive decoy (SDS-PAGE) [2]
1 | B1 | Intact IgG started to be digested already at 0.03 µg/ml | approximately 1.9 µg/ml of enzyme | approximately 0.9 µg/ml of enzyme | –
2 | B2 | – | – | – | should bind the inactivating ADA to the extent that the activity of pCART239 in serum is restored. This was shown to be the case

Source: US20260028608
